The values below come from the nanobody polyreactivity screen of Harvey et al. (2022).

A short description of this data set: yeast display, Sf9 membrane polyspecificity reagent, FACS + sequencing; frameworks hold sequencing errors. The method, boiled down:
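A synthetic nanobody library was expressed on Saccharomyces cerevisiae BJ5465 by galactose induction for 36–48 hours. The library was stained for 1 hour at 4 °C with 10% biotinylated, detergent-solubilized Sf9 membrane reagent and enriched with streptavidin microbeads before FACS. Low and high (top ~1%) gates were set on anti-HA fluorescence for expression and streptavidin fluorescence for reagent binding, and each polyreactivity label reflects the gate of origin.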
On to “QVQLVESGGGLVQAGGSLRLSCAASGRTFPLNAMGWYRQAPGKERELVAAITWSGGRTYYADSVKGRFTISRDNAKNTVYLQMNSLKPEDTAVYYCNVDKVTSWYYYGYWGQGTQVTVSS”, for which the “polyreactivity (PSR sort gate)” value is reported as “low polyreactivity”.

Turning to “QVQLVESGGGLVQAGGSLRLSCAASGRTFPLYAMGWYIQAPGKERELVAAITRSGGSTYYADSVKGRFTISRDNAKNTVYLQMNSLKPEDTAVYYCNARKSKDRPTGYAFNYWGQGTQVTVSS”, the “polyreactivity (PSR sort gate)” value is reported as “high polyreactivity”.

As for “QVQLVESGGGLVQAGGSLRLSCAASGRTFPLYAMGWYRQAPGKERELVAAISYICGSTYYADSVKGLFTISRDNAKNTVYLQMNSLKPEDTAVYYCNADYNYAYDYWGQGTQVTVSS”, the “polyreactivity (PSR sort gate)” value is on record as “low polyreactivity”.

Take “QVQLVESGGGLVQAGGSLRLSCAASGRTFPLYAMGWYRQAPGKERELVARINRGGSTYYADSVKGRFTISRDNAKNTVYLQMNSLKPEDTAVYYCNARHTWHQTYDYWGQGTQVTVSS”: the “polyreactivity (PSR sort gate)” value is on record as “low polyreactivity”.

Turning to “QVQLVESGGGLVQAGGSLRLSCAASGRTFPLYAMGWYRQAPGKERELVASITSDSSTYYADSVKGRFTISRDNAKNTVYLQMNSLKPEDTAVYYCAATTIPYPYTEFDYWGQGTQVTVSS”, the “polyreactivity (PSR sort gate)” value was “low polyreactivity”.

On to “QVQLVESGGGLVQAGGSLRLSCAASGRTFPNYVIGWYRQATGKERELVAAINSGGRTNYADSVKGRFTISRDNAKNTVYLQMNRLKQEDTAFYFCTKRGHPARLGYYYWGQGTQVTVSS”, for which the “polyreactivity (PSR sort gate)” value is recorded as “low polyreactivity”.

In the case of “QVQLVESGGGLVQAGGSLRLSCAASGRTFPPYGMGWNRQAPGKERELVADISKSSGSTNYADSVKARFTISRDKAKNTVYLQMNSVKPEDTAVYYCNVDLYRWSKLAGAYRMDYSGQGTQVTVSS”, the “polyreactivity (PSR sort gate)” value is “low polyreactivity”.

Consider “QVQLVESGGGLVQAGGSLRLSCAASGRTFPRNGMGWYRQAPGKERELVAAIRYSGGSTYYADSVKGRFTISRDNAKNTVYLQMNSLKPEDTAVYYWAAGRNRAGGFGSWGQGTQVTVSS”, for which the “polyreactivity (PSR sort gate)” value was “high polyreactivity”.

“QVQLVESGGGLVQAGGSLRLSCAASGRTFPRNGMGWYRQAPGKERELVAAISWSGGRTYYADSVKGRFTISRDNAKYTVYLQMNSLKPEDTAVYYCNALYFRKGGYWGHGTQVTVSS”: the “polyreactivity (PSR sort gate)” value was “high polyreactivity”.

For the sequence “QVQLVESGGGLVQAGGSLRLSCAASGRTFPRYAMGWYRQAPGKERELVAAISVRAGITYYADSVKGRFTISRDNAKNTVYLQMKSLKPEDTADYYCAKDHWTSSYDEGDYWGQGTQVTVSS”, the “polyreactivity (PSR sort gate)” value is reported as “low polyreactivity”.

For “QVQLVESGGGLVQAGGSLRLSCAASGRTFPRYAMGWYRQAPGKERELVAAITRRGSSTYYADSVKGRFTISRDNAKNTVYLQMNSLKPEDTAVYYCATSYHGYYYRYDYWGQGTQVTVSS”, the “polyreactivity (PSR sort gate)” value was “high polyreactivity”.

For the sequence “QVQLVESGGGLVQAGGSLRLSCAASGRTFPRYTMGWYRPAPGKERELVAASATGGSTYYADSVKGRFTISRDNAKNTVYLQMNSLKPEDTAVYYCAARPYSNRYVLGVYYWGQGTQVTVSS”, the “polyreactivity (PSR sort gate)” value is recorded as “high polyreactivity”.

On to “QVQLVESGGGLVQAGGSLRLSCAASGRTFPSYAMGWYRQAPGKERELVAAISSRGSRTYYADSVKGRFTISRDNAKNTVYLQMNSLKPEDTAVYYCAAKNLWTRKSRYDYWGQGTQVTVSS”, for which the “polyreactivity (PSR sort gate)” value was “high polyreactivity”.

For the sequence “QVQLVESGGGLVQAGGSLRLSCAASGRTFPSYTMGWYRQAPGKERELVAAITWTGGSTYYADSVKGRFTISRDNAKNTVYLQINSLKREDTAVYYCADYEYWGQGTQVTVSS”, the “polyreactivity (PSR sort gate)” value is “low polyreactivity”.

With “QVQLVESGGGLVQAGGSLRLSCAASGRTFPSYTMGWYRQAPGKERELVAAITWTGGSTYYADSVKGRFTISRDNAKNTVYLQMNSLKPEDTAVYYCADYDYWGLGTQVTVSS”, the “polyreactivity (PSR sort gate)” value was “low polyreactivity”.

In the case of “QVQLVESGGGLVQAGGSLRLSCAASGRTFPSYTMGWYSQAPGKERELVAAITWTGGSTYYADSVKGRFTISRDNAKNTVYLQMNSLKPEDTAVYYCADYDYWGQGTQVTVSS”, the “polyreactivity (PSR sort gate)” value was “low polyreactivity”.

As to “QVQLVESGGGLVQAGGSLRLSCAASGRTFPTNAMGWYRQAPGKERELVARISTRGGSTYYADSVKGRFTISRDNAKNTVYLQMNSLKPEDTAVYYCAARYQGNYRTDKYDYWGQGTQVTVSS”, the “polyreactivity (PSR sort gate)” value is recorded as “high polyreactivity”.

As to “QVQLVESGGGLVQAGGSLRLSCAASGRTFPTYAMGWDRQAPGKERELVAAITTSGGSTYADSVMGRFTISRDNAKNTVYLQMNSLKPEDTAVYYCATRSFYGGYYYSSGSEFDYWGQGTQVTVSS”, the “polyreactivity (PSR sort gate)” value is recorded as “low polyreactivity”.

With “QVQLVESGGGLVQAGGSLRLSCAASGRTFPVYAMGWYRQAPGKERELVAGITGSGGRTYYADSVKGRFTISRDNAKNTVYLQMNSLKPEDTAVYYCAADRNLYWYQHEYCGQGTQVTVSS”, the “polyreactivity (PSR sort gate)” value was “low polyreactivity”.

Regarding “QVQLVESGGGLVQAGGSLRLSCAASGRTFPVYAMGWYRQAPGKERELVATIRRRDGSTYADSVKGRFTISRDNAKNTVYLQMNSLKPEDTAVYYCNAAYRQATPWYYAWYDYWGQVTQVTVSS”, the “polyreactivity (PSR sort gate)” value is given as “high polyreactivity”.

Take “QVQLVESGGGLVQAGGSLRLSCAASGRTFPWYAMGWYRQAPGKERELVAAITISGGRTYYADSVKGRFTISRDNAKNTVYLQMNSLKPEDTAVYYCAAKTSFRYFNYAKPSYGYDYWGQGTQVTVSS”: the “polyreactivity (PSR sort gate)” value is reported as “high polyreactivity”.

As to “QVQLVESGGGLVQAGGSLRLSCAASGRTFPYNARGLYRQAPGKERELVASITRRGGSTYYADSVKGRFTISLDNAKNSVYLQMNSVKPEDTAVYYCNAAYPYVRRYKYGYWGQGTLVTVSS”, the “polyreactivity (PSR sort gate)” value was “high polyreactivity”.

“QVQLVESGGGLVQAGGSLRLSCAASGRTFPYYAKGWYRQAPGKERELVAAISKRGGNTYYADSVKGRFTISRDNAKNTVYLQLNSLIPEVTAVYYCNALSSTEYDYWGQGTQVTVSS”: the “polyreactivity (PSR sort gate)” value is recorded as “high polyreactivity”.

“QVQLVESGGGLVQAGGSLRLSCAASGRTFPYYAMGWYRQAPGKERELVAAISSSGGRTYYADSVKGRFTISRDNAKNTVYLQMISLKPEDSAVYDCNVDAWYPYQGFLVGYYYWGQGTQVTVSS”: the “polyreactivity (PSR sort gate)” value is on record as “low polyreactivity”.

Turning to “QVQLVESGGGLVQAGGSLRLSCAASGRTFPYYAMGWYRQAPGKERELVATITYSGGSTYYADSVKGRFTISRDNAKNTVYLQMNSLKPEDTAVYYCAADTGEYSAQYDYWGQGTQVTVSS”, the “polyreactivity (PSR sort gate)” value is recorded as “high polyreactivity”.

Regarding “QVQLVESGGGLVQAGGSLRLSCAASGRTFPYYDMGWYRQAPGKERELVAAITSGGTTNYADSVKGRFTISRDNAKNTVYLQMNSLKPEDTAVYYCAAGSPWYYFSSYGYWGQGTQVTVSS”, the “polyreactivity (PSR sort gate)” value is given as “low polyreactivity”.

In the case of “QVQLVESGGGLVQAGGSLRLSCAASGRTFPYYTMGWYRQAPGKERELVAAINSSGGRTYYADSVKGRFTISRDNAKNTVYLQMNSLKPEDTAAYYCAKRGYYKYDWGQGTQVTVSS”, the “polyreactivity (PSR sort gate)” value was “high polyreactivity”.

With “QVQLVESGGGLVQAGGSLRLSCAASGRTFQDYALGWSRQAPGKEREFVADISDGGSTNYADSVKGRFTISRDNAKNTVYLQMNSLKPEVTAVYYCAADQYHGVGINFRSDYDYWGHGTQVTVSS”, the “polyreactivity (PSR sort gate)” value was “low polyreactivity”.

Take “QVQLVESGGGLVQAGGSLRLSCAASGRTFQFYAMGWYRQAPGKERELVAAIDLRGGSTYYADSVKGRFTISRDNAKNTVYLQMNSLKPEDTAVYYCNATRSKFGYFYRYDYWGQGTQVTVSS”: the “polyreactivity (PSR sort gate)” value is “low polyreactivity”.

Regarding “QVQLVESGGGLVQAGGSLRLSCAASGRTFQHYVMGWYRQAPGKERELVDSITNDDSTNYADSVKGRFTISRDNAKITVYLQMNRLKPEDTAVYYCNFDDWGTPVEPGDYDYWGQGTQVTVSS”, the “polyreactivity (PSR sort gate)” value was “low polyreactivity”.

“QVQLVESGGGLVQAGGSLRLSCAASGRTFQNNAMGWYRQAPGKERELVAAISRSGASTYYADSVKGRFTISRDNAKNTVYLQMNSLKPEATAVYYCAAVTKLGYPPVNHLEDDYWGQGTQVTVSS”: the “polyreactivity (PSR sort gate)” value is “low polyreactivity”.

Take “QVQLVESGGGLVQAGGSLRLSCAASGRTFQNNAMGWYRQAPGKERELVAAISWRGTSTYYADSVKGRFTISRDNANNTVYLQMNSLKPEDTAVYYCAAYPKYGFEFKYGYWGQGTQVTVSS”: the “polyreactivity (PSR sort gate)” value was “high polyreactivity”.

With “QVQLVESGGGLVQAGGSLRLSCAASGRTFQQNAMGWYRQAPGKERELVAAINSRGGRTYYADSVKGRFTISRDNAKNTVYLQMNSLKPEDTAVYYCNAVVYTRPYTRPRYRYDYWGQGTQVTVSS”, the “polyreactivity (PSR sort gate)” value is recorded as “high polyreactivity”.

With “QVQLVESGGGLVQAGGSLRLSCAASGRTFQRNAMGWYRQAPGKERELVAAITTGSRTYYADSVKGRFTISRDNAKNTVYLQMNSLKPEDTAFYYCAAVATRRDYGYWGQGTQVTVLS”, the “polyreactivity (PSR sort gate)” value is “high polyreactivity”.

As for “QVQLVESGGGLVQAGGSLRLSCAASGRTFQRYAMGWYRQAPGKERELVAAISFSGGSTYYADSVKGRFTISRDNAKNTVYLQMNSLKPEDTAVYYCAAYHARSGYDSWGQGTQVTVSS”, the “polyreactivity (PSR sort gate)” value is “high polyreactivity”.

Regarding “QVQLVESGGGLVQAGGSLRLSCAASGRTFQTNVMGWYRQAPGKERELVAAISKTGGRTYYADSVKGRFTISRDNAKNTVYLQMNSLKPEDTAVYYCAADSSGYEDYDYWGQGTQVTVSS”, the “polyreactivity (PSR sort gate)” value is recorded as “high polyreactivity”.

As to “QVQLVESGGGLVQAGGSLRLSCAASGRTFQWYAMGWYRQAPGKERELVAAISYSDASTYYADSVKGRFTISRDNAKNTVYLQMNSLKPEDTAVYYCAAVYYVVYGPWGGSYYWGQGTQVTVSS”, the “polyreactivity (PSR sort gate)” value is recorded as “low polyreactivity”.

For “QVQLVESGGGLVQAGGSLRLSCAASGRTFQWYVMGWYRQAPGKERELVAAITKSGGSTFYADSVKGRFTISRDNAKNTVYLQMNSLKPEDTAVYYCAASGRYAIVLGDQYYGYYYWGQGTQVTVSS”, the “polyreactivity (PSR sort gate)” value is given as “high polyreactivity”.

Turning to “QVQLVESGGGLVQAGGSLRLSCAASGRTFQYNTMGWYRQAPGKERELVAAISWSGGRTYYADSVKGRFTISRDNAKNTVYLQMNSLKPEDTAVYYCAADGTPEIRDNYWGQGTQVTVSS”, the “polyreactivity (PSR sort gate)” value is “high polyreactivity”.

“QVQLVESGGGLVQAGGSLRLSCAASGRTFQYYAMGWYRQAPGKERELVATISYSGGSTSYADSVKGRFTISRDNAKNTVYLQMNSLKPEDTAVYYCAADYYYGDALSPYYPHWDFYYWGQGTQVTVSS”: the “polyreactivity (PSR sort gate)” value is listed as “low polyreactivity”.

“QVQLVESGGGLVQAGGSLRLSCAASGRTFRANAMGWYRQAPGKERELVAAISKRGGNTYYADSVKGRFTISRDNAKYTVYLQMNSLKPEDTAVYYCAAHFIGRDYDYWGQGTQVTVSS”: the “polyreactivity (PSR sort gate)” value is on record as “high polyreactivity”.
